Source: patent publication US7053177B1, “Random peptides that bind to gastro-intestinal tract (GIT) transport receptors and related methods” (Cytogen Corporation, priority 1997, dated 2006)
Read-outs that look alike come from different tables or passages of the source. Ends that are not written are not given here.

How the values were obtained:
hPEPT1 = target: T1, hPEPT1 (Homo sapiens, UniProt P46059); assay: Receptor ELISA of phage on recombinant hPEPT1; type: binding; conditions: Table 4
T1 construct: 391–571; made in house
T1 sequence (P46059 391-571): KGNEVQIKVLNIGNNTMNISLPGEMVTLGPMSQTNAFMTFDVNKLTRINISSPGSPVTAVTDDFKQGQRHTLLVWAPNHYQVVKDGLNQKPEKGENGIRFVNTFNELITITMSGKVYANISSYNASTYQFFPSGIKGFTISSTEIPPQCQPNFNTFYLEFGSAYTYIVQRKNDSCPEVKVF
Experimental: (§1) 96 well plates were coated overnight with GIT receptor, BSA and, optionally, IDE (insulin degrading enzyme, an irrelevant His-fusion protein)or hTF. The plates were blocked for one hour with 0.5% BSA-PBS. After clarification, the amplified phage were diluted 1:100 in 1% BSA plus 0.05% Tween 20 in PBS and added to the plates. Following incubation of the plates on a rotator for 1 to 2 hours, the plates were washed 5 times with 1% BSA plus 0.05% Tween 20 in PBS. […] After the plates were washed 5 times, as described above, TMB substrate was added to the wells. The plates were read at 650 nm absorbance.

BSA = BSA (Bos taurus, UniProt P02769); assay: Receptor ELISA of phage on BSA (background control protein); type: binding; conditions: Table 4; phage panned on hPEPT1
Chain of BSA (P02769 25-607): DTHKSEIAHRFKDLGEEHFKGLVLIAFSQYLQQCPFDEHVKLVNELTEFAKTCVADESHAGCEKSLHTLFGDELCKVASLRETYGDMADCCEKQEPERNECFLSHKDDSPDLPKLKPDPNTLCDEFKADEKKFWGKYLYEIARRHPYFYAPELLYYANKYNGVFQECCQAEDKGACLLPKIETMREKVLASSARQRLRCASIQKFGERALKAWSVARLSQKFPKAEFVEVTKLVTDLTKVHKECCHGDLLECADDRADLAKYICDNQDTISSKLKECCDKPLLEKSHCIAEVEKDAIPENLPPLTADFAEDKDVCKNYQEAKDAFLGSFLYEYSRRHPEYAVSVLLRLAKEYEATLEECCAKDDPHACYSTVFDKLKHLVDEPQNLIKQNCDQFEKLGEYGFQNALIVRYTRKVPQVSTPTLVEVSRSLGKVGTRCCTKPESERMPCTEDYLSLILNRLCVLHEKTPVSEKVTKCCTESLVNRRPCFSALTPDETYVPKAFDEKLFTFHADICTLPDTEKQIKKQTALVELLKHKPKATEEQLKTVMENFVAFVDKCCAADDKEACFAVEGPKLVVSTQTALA
Experimental: 96 well plates were coated overnight with GIT receptor, BSA and, optionally, IDE (insulin degrading enzyme, an irrelevant His-fusion protein)or hTF. The plates were blocked for one hour with 0.5% BSA-PBS. After clarification, the amplified phage were diluted 1:100 in 1% BSA plus 0.05% Tween 20 in PBS and added to the plates. Following incubation of the plates on a rotator for 1 to 2 hours, the plates were washed 5 times with 1% BSA plus 0.05% Tween 20 in PBS. Dilute anti-M13-HRP conjugate (anti-M13 antibody linked to horse radish peroxidase (HRP)) was added to all the wells and the plate was incubated for one hour on a rotator. After the plates were washed 5 times, as described above, TMB substrate was added to the wells. The plates were read at 650 nm absorbance.

[1] = system: rat gastro-intestinal tract (closed loop); assay: Transport of preselected phage libraries in rat closed loop, detected by oligonucleotide hybridization/autoradiography; conditions: hPEPT1 pool; in words
Experimental: Four preselected phage libraries, GI-D2H, GI-hSI, GI-HPT1 and GI-hPEPT1, were constructed by pooling phage previously selected by screening random phage display libraries D38 and DC43 using the HPT1, HPEPT1, D2H and hSI receptor or binding sites located in the GIT.
In particular, phages selected in vitro to each receptor or binding site located in the GIT were amplified in E. coli, PEG-precipitated, resuspended in TBS and the titer of each phage sample was determined by plaquing in E. coli as described above. […] Using the in situ loop model described above, 0.5 ml of preselected phage library solution was injected into the tied-off portion of the duodenum/jejunum. Blood was collected into heparinized tubes from the portal vein at 0, 15, 30, 45 and 60 minutes. A blood sample was taken from the systemic circulation at the end of the experiment. Similarly, the portion of the duodenum/jejunum used for phage injection was taken at the end of the experiment.
Thirty microliters of the collected portal blood (neat and 10^−2, 10^−1, 10^−6 dilutions) was added to 30 μl E. coli K91Kan cells (overnight culture) and incubated at 37° C. for 10 min. Subsequently, 3 ml of top agarose was added and the samples were plated for plaques. One hundred microliters of the collected portal blood was added to 100 μl of E. coli K91Kan. Five milliliters of LB medium was then added and the samples were incubated at 37° C. overnight in a rotating microbial incubator. The E. coli was removed by centrifugation and the amplified phage supernatant samples were either titered directly or were PEG-precipitated, resuspended in TBS and titered. Following titration of the amplified phage, samples containing phage from each set of animals were combined, adjusting the titer of each sample to the same titer, and were plated for plaques on LB agar lates (22 cm^2 square plates). Either 12,000 or 24,000 phage were lated for plaques.
Thirty microliters of the collected systemic blood (neat and 10^−2, 10^−1, 10^−6 dilutions) was added to E. coli K91Kan cells, incubated at 37° C. for 10 min. Three ml of top agarose was then added and the samples were plated for plaques. One hundred microliters of the collected systemic blood was added to 100 μl of E. coli K91Kan, incubated at 37° C. for 10 min. Five milliliters of LB medium was then added and the samples were incubated at 37° C. overnight in a rotating microbial incubator. The E. coli was removed by centrifugation and the amplified phage supernatant samples were either titered directly or were PEG-precipitated, resuspended in TBS and titered. Following titration of the amplified phage, samples containing phage from each set of animals were combined, adjusting the titer of each sample to the same titer, and were plated for plaques on LB agar plates (22 cm^2 square plates). Either 12,000 or 24,000 phage were plated for plaques.
The intestinal tissue portion used in each closed loop was excised. […] Alternatively, the tissue (in PBS supplemented with protease inhibitors) was homogenized in an Ultra Thorex homogenizer, washed 3 times in PBS containing protease inhibitors and resuspended in PBS containing protease inhibitors (Int-G samples). In each case, serial dilutions (neat and 10^−2, 10^−4, 10^−6 dilutions) of the tissue homogenate was titered in E. coli.
The phage amplified from the portal blood, systemic blood and intestinal tissue was plated for plaques. […] The filters were air-dried, and the DNA was cross-linked to the filter (UV crosslinking: 2 min, high setting). The filters were incubated in pre-hybridization buffer (6×SSC, 5× Denhardt's solution, 0.1% SDS, […] yeast tRNA) at 40° C.–45° C. for at least 60 min.
Synthetic oligonucleotides, (22-mers), complimentary to regions coding for the receptor or binding sites used to create the preselected phage library, were synthesized (see Table 14 below).

[2] = target: bovine serum albumin (bovine) (UniProt P02769); assay: phage ELISA on coated BSA
Chain of bovine serum albumin (bovine) (P02769 25-607 limits assumed): as the sequence (P02769 25-607) above

[3] = target: T2, recombinant HPT1 receptor domain (human intestinal peptide-associated transporter HPT1, amino acid residues 29-273), His-tag fusion protein (human) (UniProt Q12864); assay: phage ELISA on coated HPT1
T2 sequence: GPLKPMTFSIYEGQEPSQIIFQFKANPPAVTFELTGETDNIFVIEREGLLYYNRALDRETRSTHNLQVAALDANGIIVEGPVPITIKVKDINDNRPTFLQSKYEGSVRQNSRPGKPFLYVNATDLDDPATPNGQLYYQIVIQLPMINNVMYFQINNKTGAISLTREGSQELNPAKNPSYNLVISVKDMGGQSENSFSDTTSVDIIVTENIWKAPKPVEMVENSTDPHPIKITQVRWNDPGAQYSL

[4] = target: T2, recombinant HPT1 receptor domain (human intestinal peptide-associated transporter HPT1, amino acid residues 29-273), His-tag fusion protein (human); assay: phage ELISA, OD on HPT1 over OD on BSA
[5] = target: T3, recombinant HPT1 receptor domain (human intestinal peptide-associated transporter HPT1, amino acid residues … (human, UniProt Q12864 29-273)); assay: phage ELISA, OD on HPT1 over OD on BSA
T3 construct: purified under denaturing conditions; coated on plates
T3 sequence: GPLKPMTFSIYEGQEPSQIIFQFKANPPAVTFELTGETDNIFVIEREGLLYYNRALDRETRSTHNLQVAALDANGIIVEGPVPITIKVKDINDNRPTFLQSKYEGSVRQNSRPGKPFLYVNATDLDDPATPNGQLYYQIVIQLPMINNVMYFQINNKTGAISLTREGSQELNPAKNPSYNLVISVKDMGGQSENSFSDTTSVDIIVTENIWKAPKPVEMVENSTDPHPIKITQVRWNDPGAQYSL
Experimental: as §1, with “6.6. Receptor ELISA Procedure 96” for “96”

[6] = target: T4, recombinant hSI receptor domain (human sucrase-isomaltase complex, amino acid residues 272-667), His-tag … (human, UniProt P14410 272-667); assay: phage ELISA on coated hSI
T4 construct: purified under denaturing conditions on Ni-NTA agarose; coated on plates; also called hS1
T4 sequence (P14410 272-667 limits assumed, form in doubt, one chain of several): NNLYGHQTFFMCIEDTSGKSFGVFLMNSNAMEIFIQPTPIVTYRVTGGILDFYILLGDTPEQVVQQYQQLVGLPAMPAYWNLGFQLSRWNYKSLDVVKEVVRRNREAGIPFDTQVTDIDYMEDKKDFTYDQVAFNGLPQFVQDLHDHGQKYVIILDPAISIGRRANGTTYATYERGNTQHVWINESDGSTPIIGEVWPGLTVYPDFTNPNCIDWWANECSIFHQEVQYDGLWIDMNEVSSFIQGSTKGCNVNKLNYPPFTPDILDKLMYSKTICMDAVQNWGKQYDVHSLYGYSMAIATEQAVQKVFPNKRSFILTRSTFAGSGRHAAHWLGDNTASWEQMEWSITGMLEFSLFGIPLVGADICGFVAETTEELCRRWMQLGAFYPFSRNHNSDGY
Experimental: as §1, with “6.6. Receptor ELISA Procedure 96” for “96”

[7] = target: T4, recombinant hSI receptor domain (human …); assay: phage ELISA, OD on hSI over OD on BSA
Experimental: as §1, with “6.6. Receptor ELISA Procedure 96” for “96”

[8] = target: bovine serum albumin (bovine) (UniProt P02769); assay: phage ELISA on coated BSA; remark: listed apart in the source
[9] = target: T5, recombinant D2H receptor domain (human D2H transporter, amino acid residues 387-685), His-tag fusion protein (human), Q07837; assay: phage ELISA on coated D2H
T5 chain: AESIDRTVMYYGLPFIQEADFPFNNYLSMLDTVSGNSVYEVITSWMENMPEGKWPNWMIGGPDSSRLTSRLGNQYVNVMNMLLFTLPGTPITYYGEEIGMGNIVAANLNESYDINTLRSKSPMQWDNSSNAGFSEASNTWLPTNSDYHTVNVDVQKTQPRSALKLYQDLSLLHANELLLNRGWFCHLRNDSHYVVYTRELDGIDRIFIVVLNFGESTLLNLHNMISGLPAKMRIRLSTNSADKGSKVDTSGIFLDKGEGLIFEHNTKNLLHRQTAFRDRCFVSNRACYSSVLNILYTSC

[10] = target: T5, recombinant D2H receptor domain (human …); assay: phage ELISA, OD on D2H over OD on BSA
[11] = target: T6, recombinant D2H receptor domain (human D2H transporter, amino acid residues 387-685), His-tag fusion protein (human, UniProt Q07837 387-685); assay: phage ELISA, OD on D2H over OD on BSA
T6 construct: purified under denaturing conditions; coated on plates
T6 sequence: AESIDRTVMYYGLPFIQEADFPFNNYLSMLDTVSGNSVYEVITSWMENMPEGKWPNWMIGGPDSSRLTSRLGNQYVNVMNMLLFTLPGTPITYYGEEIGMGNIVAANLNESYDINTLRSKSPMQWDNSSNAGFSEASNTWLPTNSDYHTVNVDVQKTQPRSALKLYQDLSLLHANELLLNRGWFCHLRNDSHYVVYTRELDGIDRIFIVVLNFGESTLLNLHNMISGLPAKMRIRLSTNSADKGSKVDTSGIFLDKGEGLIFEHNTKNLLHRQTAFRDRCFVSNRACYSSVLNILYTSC
Experimental: as §1, with “6.6. Receptor ELISA Procedure 96” for “96”
Binding to fixed Caco-2 cells, D2H and BSA was examined.

RGSTGTAGGERSGVLNLHTRDNASGSGFKPWYPSNRGHK (not fully specified) [Peptide 5PAX5]
hPEPT1 (hPEPT1; phage panned on hPEPT1): 0.15 OD | PEPT1/BSA (hPEPT1; ratio of hPEPT1 to BSA binding): 4 | BSA (BSA): 0.036 OD | Binding to / presence in the intestine samples [1]: not found | Presence in the portal circulation [1]: not found | Presence in the systemic circulation [1]: found in the systemic circulation

B1: phage HAX42 (peptide, not shown: large carriers)
peptide: SDHALGTNLRSDNAKEPGDYNCCGNGNSTGRKVFNRRRPSAIPT
modifications: cysteine pairing not given here; also: displayed as N-terminal pIII fusion on M13 phage
OD [2]: 0.071 OD 650 nm | OD [3]: 0.32 OD 650 nm | HPT/BSA [4]: 5

B2: phage HAX40 (peptide)
peptide: REFAERRLWGCDDLSWRLDAEGCGPTPSNRAVKHRKPRPRSPAL
modifications: cysteine pairing not given here; also: displayed as N-terminal pIII fusion on M13 phage
notes: M13 phage displaying this insert as N-terminal pIII fusion; whole phage in the ELISA; also called H44; not shown: M13 pIII display protein and the vector-encoded flanking residues
HPT/BSA [5]: 15 ratio | OD [2]: 0.065 OD 650 nm

SREEANWDGYKREMSHRSRFWDATHLSRPRRPANSGDPN (peptide, not shown: large carriers, also: displayed as N-terminal pIII fusion on M13 phage) [phage HAX9]
OD [2]: 0.075 OD 650 nm | OD [3]: 0.382 OD 650 nm | HPT/BSA [4]: 5

B3: phage S21 (peptide)
peptide: SPRSFWPVVSRHESFGISNYLGCGYRTCISGTMTKSSPIYPRHS
notes: M13 phage displaying this insert as N-terminal pIII fusion; whole phage in the ELISA
OD [6]: 0.845 OD 650 nm | OD [2]: 0.092 OD 650 nm | hSI/BSA [7]: 9 ratio

SGSLNAWQPRSWVGGAFRSHANNNLNPKPTMVTRHPT (modifications not checked) [phage DCX39]
OD [8]: 0.066 OD 650 nm | OD [9]: 0.299 OD 650 nm | D2H/BSA [10]: 5

B4: phage HCA3 (peptide)
peptide: RHISEYSFANSHLMGGESKRKGCGINGSFSPTCPRSPTPAFRRT
modifications: cysteine pairing not given here; also: displayed as N-terminal pIII fusion on M13 phage
notes: M13 phage displaying this insert as N-terminal pIII fusion; whole phage in the ELISA; not shown: M13 pIII display protein and the vector-encoded flanking residues
HPT1/BSA [5]: 1 ratio | OD [2]: 0.038 OD 650 nm

B5: phage DCX36 (peptide)
peptide: SWSSWNWSSKTTRLGDRATREGCGPSQSDGCPYNGRLTTVKPRT
notes: as for B3
D2H/BSA [11]: 5 ratio
